Experimental data published in the supplement of paper PMC9170038.

Experiments:
[1] = system: MS2 coat protein; test: apparent KD of MS2 coat protein; designed switch direction (-1 OFF switch, 1 ON switch): 1; higher = weaker reporter binding
In short: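 On Illumina chips, designed RNA switches with common flanks were made by stalled E. coli RNA polymerase. Titrations with SNAP-549-labelled MS2 coat protein, doubling from 0.7 or 1.5 nM to 3 µM, were done with no input, with 200 uM small-molecule ligand, or with an oligonucleotide input. Apparent KD is the median per design over clusters, from curve fits of normalised cluster fluorescence.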

[2] = system: MS2 coat protein; test: apparent KD of MS2 coat protein; higher = weaker reporter binding; conditions: Eterna round: R107
In short: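 Apparent KD was obtained for each design as the median of normalised binding-curve fits over its clusters. RNA switches transcribed on-chip from Illumina sequencing clusters were titrated with SNAP-549-labelled MS2 coat protein (twofold steps, 0.7 or 1.5 nM to 3 µM) in 100 mM Tris-HCl pH 7.5, 80 mM KCl, 4 mM MgCl2, without or with constant ligand.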

[3] = input ligand: microRNA oligo, concentration not stated
[4] = input ligand: theophylline 20 uM
[5] = input ligand: theophylline 2 mM
[6] = input ligand: tryptophan 2.4 mM

Sequence | apparent KD of MS2 coat protein ([2]; input ligand: arginine 13.2 mM) | apparent KD of MS2 coat protein [2, 4] | apparent KD of MS2 coat protein [2, 5] | apparent KD of MS2 coat protein [2, 6] | also measured
GGGAGAGGCGCAGGAUAUGGUGAGGAUCACCCACUAGAAGGGUGCACAUGAGAAUCGGACAUGAGGAUCACCCAUGUCCGGCGC (Eterna round: R96, puzzle: Same State NG 1) |  |  |  |  | apparent KD of MS2 coat protein ([1]; input ligand: FMN 200 uM): 375 nM; apparent KD of MS2 coat protein [1, 3]: 143 nM; apparent KD of MS2 coat protein ([1]; input ligand: none): 445 nM
AACAGUCGGCGAGGAUAUGGACGUACAGGUUUGCCUGUGCGGCUCACAUGAGGAUCACCCAUGUUCUAGAAGGCGCCACUGUGA [Racearza] (Eterna round: R96, puzzle: Same State NG 2) |  |  |  |  | apparent KD of MS2 coat protein ([1]; input ligand: FMN 200 uM): 15.6 nM; apparent KD of MS2 coat protein [1, 3]: 60 nM; apparent KD of MS2 coat protein ([1]; input ligand: none): 73.9 nM
UUGAAGAAUUAAGGAUAUUGAUUACAUAUGUUAAACAUGAGGAUCACCCAUGUGGGUUGCGGUAUCGAGAAGGUAAAUUAAAAG [Mat - same State NG 2 - JL mod - D78] (Eterna round: R96, puzzle: Same State NG 2) |  |  |  |  | apparent KD of MS2 coat protein ([1]; input ligand: FMN 200 uM): 171 nM; apparent KD of MS2 coat protein [1, 3]: 123 nM; apparent KD of MS2 coat protein ([1]; input ligand: none): 146 nM
ACAAGCUUUUUGCUCAUCUUAUGUCCGAAACAUGAGGAUCACCCAUGUAUAGAUUAUGUGUUGUUGUAGAUGCAAGA [JR_SHM208A_Sub062] (puzzle: Sensor for hsa-mir-208a) |  |  |  |  | apparent KD of MS2 coat protein ([1]; Eterna round: R95, input ligand: FMN 200 uM): 31.8 nM; apparent KD of MS2 coat protein ([1]; Eterna round: R95, input ligand: microRNA oligo, concentration not stated): 25.9 nM; apparent KD of MS2 coat protein ([1]; Eterna round: R95, input ligand: none): 42.9 nM
GGCCGGAGUCAAGGAUAUGCUACCGUUUCGGUAGCAGAAGGUGAUCACAUGAGGAUCACCCAUGUUUACUGGGAGACCACGGCC [JL SSNG1 3.70] (Eterna round: R96, puzzle: Same State NG 1) |  |  |  |  | apparent KD of MS2 coat protein ([1]; input ligand: FMN 200 uM): 105 nM; apparent KD of MS2 coat protein [1, 3]: 134 nM; apparent KD of MS2 coat protein ([1]; input ligand: none): 166 nM
UUCACCUUUUAUAACAUGAGGAUCACCCAUGUAUAUUGUACGUAGGAUAUCGAUGUUUGUUUUUUCGAGAAGGACGAUGUAAGU [JR_SSND3_Sub050] (Eterna round: R96, puzzle: Same State NG 3) |  |  |  |  | apparent KD of MS2 coat protein ([1]; input ligand: FMN 200 uM): 37 nM; apparent KD of MS2 coat protein [1, 3]: 25.4 nM; apparent KD of MS2 coat protein ([1]; input ligand: none): 38.9 nM
GACAGACAUGAGGAUCACCCAUGUACAAACGUACAAGGAUAUGUGUGGAAACCGUACUAUACAGAAGGUGUCUGUC [SS1 - 90] (Eterna round: R96, puzzle: Same State 1) |  |  |  |  | apparent KD of MS2 coat protein [1, 3]: 71.3 nM
AAAUAAACACAUGAGGAUCACCCAUGUCCCAAAAUACAAACGCAGGAUAUGGGCACGAACCGUGUCCAGAAGGGCGCAAAAUAC [Esonbia] (Eterna round: R96, puzzle: Same State NG 3) |  |  |  |  | apparent KD of MS2 coat protein ([1]; input ligand: FMN 200 uM): 24.5 nM; apparent KD of MS2 coat protein [1, 3]: 111 nM; apparent KD of MS2 coat protein ([1]; input ligand: none): 116 nM
AGUCCAGCCUGAGCUGGACAAAAGCAUGUACAUGAGGAUCACCCAUGUCAUGUACAAGCUUUUUGCUCGUCUUAAGA [Mat - hsa-mir-208a - Mod of JL - D21] (Eterna round: R96, puzzle: Sensor for hsa-mir-208a) |  |  |  |  | apparent KD of MS2 coat protein ([1]; input ligand: FMN 200 uM): 806 nM; apparent KD of MS2 coat protein [1, 3]: 16.2 nM; apparent KD of MS2 coat protein ([1]; input ligand: none): 840 nM
AGCCGCGUUCUUUCUUUCUUUCUAGCGGCACGAGGACCGGUACGGCCGCCACUCGAAGACAUGAGGAUCACCCAUGUAGUGGGUA [The Second Ring] | 47.4 nM | 142 nM | 109 nM | 206 nM | apparent KD of MS2 coat protein ([2]; input ligand: none): 123 nM
AUAAUAAUCCUCAUGUAAGGUCCUCGAUAACGAGGACCGGUACGGCCGCCACUCGAACAUGAGGAUCACCCAUGUACGAGGACCA [M' - T' - T - MS2 - T'' Design 1] | 19.6 nM | 37 nM | 38.2 nM |  | 
CAGGUGCAGUCAGAUACCAGAUCUGCACAUGAGGAUCACCCAUGUGUAAUGAGUUCAAAGAUCCCUUGGCAGCUGUGUGAUCCGA [Onbidibe] | 81.1 nM | 210 nM |  | 96.3 nM | 
GGGCCCGGGCCCGAUACCAGCAGAGAAAACAUAUAUCCUAACAUGAGGAUCACCCAUGUAUGCCCUUGGCAGCGGGCCCGGGCCC [#15 Exclusion-TheophyllineB] | 32.2 nM | 33.9 nM | 33.2 nM | 28.2 nM | apparent KD of MS2 coat protein ([2]; input ligand: none): 34.5 nM
ACUUCAUGAGGUGAUACCAGCCAAUGACAUGAGGACAUGAGGAUCACCCAUGUUUAUGUAGGCCCUUGGCAGCACUGUAACAUGA [Same State Theophylline B 4] | 19.5 nM | 31.8 nM |  | 19.7 nM | 
GGUUCCUCAACGGCCGCCACUUACUGGAUUAGUGGACCUACUUGCAACAUGAGGAUCACCCAUGUAAGGACCGGGUUGCUCCCAA [theeternabot_exclusion_MS2_Trp_B_34] | 46.9 nM | 90.1 nM | 87.9 nM |  | 
GUUAUAUGAAAACAUAUAACAGUGGGUGAACGAGGACCGGUACGGCCGCCACUCGGACAUGAGGAUCACCCAUGUCCAUGUGAAA [AstrosExyTryA#6] | 15.2 nM | 17.4 nM | 22 nM |  | 

Sequence | apparent KD of MS2 coat protein ([2]; input ligand: arginine 13.2 mM) | apparent KD of MS2 coat protein [2, 4] | apparent KD of MS2 coat protein [2, 5] | apparent KD of MS2 coat protein [2, 6] | also measured
GUCUUUGACGAUCUGGGAAAACCAGAUCGACGAGGACCGGUACGGCCGCCACUCGUGUUUUCUUUACAUGAGGAUCACCCAUGUA [#17 Tryptophan A Same State] | 13.2 nM | 15.7 nM | 15.1 nM |  | 
GGGUACAUCGCGGCCGCCACUUAUGUAAAUACAUGAGGAUCACCCAUGUCGAUGGAGACAUCGGUAAGGACCGGGUGAUGUACCG | 168 nM | 174 nM | 183 nM |  | apparent KD of MS2 coat protein ([2]; input ligand: none): 155 nM
CAAGAACAGCCGAAUCUCGGCAGCUGAGAAGGAGCGCGAGAAGUCGCAGGUAGGUCGCUCAGGAAUACAUGAGGAUCACCCAUGU [Usaronen] | 32.4 nM | 45.9 nM | 46.8 nM | 27.9 nM | apparent KD of MS2 coat protein ([2]; input ligand: none): 28.4 nM
GUAGCGACGACGGCCGCCACUCACACGAGAGGGUAGACCAACCUUCACAUGAGGAUCACCCAUGUGAGGACCGGGUUGUCGGUAC [Exclusion - Tryptophan B] | 20 nM | 26.6 nM | 33 nM |  | 
CCUGGAUCAGAUCUUAAAGGCGGUUCUGAUACCAGUCUUUUCCGAGACCCUUGGCAGCAGAACACAUGAGGAUCACCCAUGUAAA [theeternabot_exclusion_MS2_Theo_A_11] | 29.1 nM | 59 nM |  | 59.7 nM | 
UGUAACAUGAGGAUCACCCAUGUAAGUGAUACCAGAUAAGUAGUAGUCCCUUGGCAGCAUAUUGGGAAAGUGUAUAGUGUAUAUG [Same State - Theophylline A (Freestyle 4)] | 48.9 nM | 72.3 nM |  | 58.4 nM | 
CAGCCUGGUUGGUAAAUCCCUCAUCGUGAUACCAGUCGAGUGAUCGACCCUUGGCAGCACAUGAGGAUCACCCAUGUGCUCGUAU [Diorqu] | 18.6 nM | 31.1 nM |  | 17.9 nM | 
GUGCUGGUAUCGGCCGCCACUGUAACAUGACAUCCCAGGGCCGACAUGAGGAUCACCCAUGUUAACAGGACCGGGAUAUCAACGA [Riorquen] | 13.2 nM | 28.9 nM | 19.5 nM |  | 
AUCGUACCUAAUGAUACCAGCAAGUGAUCAUAACAUGAGGAUCACCCAUGUAAUCAGUGAUGCCCUUGGCAGCAUAAUCGAUACA [Same State - Theophylline B (Freestyle 3)] | 103 nM | 170 nM |  | 129 nM | 
UACUUGCUGACGGCCGCCACUAGAACAUGAGGAUCACCCAUGUAAGUGGUUGGUUCAUGGGUGACUAGGACCGGGUCAGCAAGAU [(Trp1)-(Ms2)-(T)'-(M)'-(Trp2)_Design19] | 26.9 nM | 47.9 nM | 37.7 nM |  | 
GGAAAAGAAAGAAAAGAAAUCCCUCCCUCCCGAGGACCGGUACGGCCGCCACUCGCCCUCCCUCCCACAUGAGGAUCACCCAUGU [Exclusion - Trytophan A] | 23.7 nM | 31.3 nM | 27.8 nM |  | 
GGUUACUCUACGGCCGCCACUGAACAUGAGGAUCACCCAUGUAAUGUUCAGACGUCUUUAGACGACAGGACCGGGUAGUGUAACC [Tryptophan B 5] | 119 nM | 208 nM | 232 nM |  | 
GAAUUUAUUUGAAGGAGCGUCGAAAAUGGGUAAACAUGAGGAUCACCCAUGUAAAGGGAACGACAGGUAGGUCGCAAAUGGAUUC [AstromonsSSArgB#27] | 126 nM | 259 nM | 224 nM | 188 nM | apparent KD of MS2 coat protein ([2]; input ligand: none): 206 nM
AAAUAAAACUGACAUACUGACCCAGUGGAAGGAGCGCACGAGGGUGCAGGUAGGUCGCCACAUGAGGAUCACCCAUGUCACGGAA [Esesinonla] | 56 nM | 135 nM | 131 nM | 86.7 nM | apparent KD of MS2 coat protein ([2]; input ligand: none): 91.9 nM
ACCUCACUCUCUGAUACCAGCUAACAACAUGAGGAUCACCCAUGUCAGACUUGUAUUGAUAGCCCUUGGCAGCAGAGGUAACUGC [#16 Exclusion-TheophyllineB] | 13.9 nM | 21.2 nM |  | 16.8 nM | 
UAGGCACGAGACAUGAGGAUCACCCAUGUUCGAGGACCGGUACGGCCGCCACUCGGUGGACUCAUGGUAAAGCCGGUGAGCCAAU [AK 1.2 SS Trypt (A)] | 16.7 nM | 28.1 nM | 15.8 nM | 51.6 nM | apparent KD of MS2 coat protein ([2]; input ligand: none): 17.1 nM
